From patent US20140087995A1 (published 2014) come the findings set out here.

The target of this experiment is T1, human amylin receptor (amylin 3(a) receptor: human calcitonin receptor with RAMP-3) (human, UniProt P30988 25-474; O60896 24-148).
T1 construct: whole, on cells; also called hAmylin-R; hAmylinR
T1 sequence (looked up) 1: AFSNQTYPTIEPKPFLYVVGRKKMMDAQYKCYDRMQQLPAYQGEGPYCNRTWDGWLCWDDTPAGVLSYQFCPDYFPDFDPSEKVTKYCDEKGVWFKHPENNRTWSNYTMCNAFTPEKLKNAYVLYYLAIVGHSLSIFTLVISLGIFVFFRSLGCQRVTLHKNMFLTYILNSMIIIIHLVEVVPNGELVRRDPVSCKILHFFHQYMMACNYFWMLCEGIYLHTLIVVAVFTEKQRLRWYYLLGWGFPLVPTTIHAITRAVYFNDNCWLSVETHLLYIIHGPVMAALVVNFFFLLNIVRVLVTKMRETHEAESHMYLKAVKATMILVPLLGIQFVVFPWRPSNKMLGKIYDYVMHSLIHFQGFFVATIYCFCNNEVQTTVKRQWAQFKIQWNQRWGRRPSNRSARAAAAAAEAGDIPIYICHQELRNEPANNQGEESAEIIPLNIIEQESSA
T1 sequence (looked up) 2: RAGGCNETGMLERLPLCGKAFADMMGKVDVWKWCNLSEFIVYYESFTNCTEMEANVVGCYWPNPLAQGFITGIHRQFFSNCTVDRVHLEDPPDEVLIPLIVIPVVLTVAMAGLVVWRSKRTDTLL
The experiment is described as follows: SPA displacement of 125I-rat amylin, hAmylin 3(a) receptor membranes. Put shortly: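 SPA beads + BHK amylin 3(a)/CRE-luc membranes, 35 ng/μL final; buffer 50 mM Hepes pH 7.4, 1 mM CaCl2, 5 mM MgCl₂, 0.1% OA, 0.02% Tween20. 120 min, 25° C, shaken; scintillation count. IC₅₀ by one-site binding competition fit, taken as receptor affinity.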
A general note: Displacement assays read how much labelled ligand stays bound in the presence of the test substance.

Numbered stars: 1 amine (or outer) side, 2 acyl side, 3 side chain; on linkers, the order of the positions; unused ones are H or OH. Bridge positions count the residues as written; N and C are the ends. Side chains are listed from the residue outwards. Ends that are not written are not given here. * marks the point of attachment. C20 diacid = O=C(O)CCCCCCCCCCCCCCCCCCC(=O)*; γGlu = O=C(O)[C@H](CCC(=O)[*:2])N[*:1]; AEEA = NCCOCCOCC(=O)O

B1: N^ε1-[2-[2-[2-[[2-[2-[2-[[(4S)-4-carboxy-4-(19-carboxynonadecanoylamino)butanoyl]amino]ethoxy]ethoxy]acetyl]amino]ethoxy]ethoxy]acetyl]-[Arg17,Pro21,Pro27,His34 … (peptide)
peptide: K([AEEA-AEEA-γGlu-C20 diacid])CNTATCATQRLANFLRHSSPNFGAIPSSTNVGHNTY-NH2
modifications: disulfide 2-7; N-terminus assumed
SMILES: CC[C@H](C)[C@H](NC(=O)[C@H](C)NC(=O)CNC(=O)[C@H](Cc1ccccc1)NC(=O)[C@H](CC(N)=O)NC(=O)[C@@H]1CCCN1C(=O)[C@H](CO)NC(=O)[C@H](CO)NC(=O)[C@H](Cc1c[nH]cn1)NC(=O)[C@H](CCCNC(=N)N)NC(=O)[C@H](CC(C)C)NC(=O)[C@H](Cc1ccccc1)NC(=O)[C@H](CC(N)=O)NC(=O)[C@H](C)NC(=O)[C@H](CC(C)C)NC(=O)[C@H](CCCNC(=N)N)NC(=O)[C@H](CCC(N)=O)NC(=O)[C@@H](NC(=O)[C@H](C)NC(=O)[C@@H]1CSSC[C@H](NC(=O)[C@@H](N)CCCCNC(=O)COCCOCCNC(=O)COCCOCCNC(=O)CC[C@H](NC(=O)CCCCCCCCCCCCCCCCCCC(=O)O)C(=O)O)C(=O)N[C@@H](CC(N)=O)C(=O)N[C@@H]([C@@H](C)O)C(=O)N[C@@H](C)C(=O)N[C@@H]([C@@H](C)O)C(=O)N1)[C@@H](C)O)C(=O)N1CCC[C@H]1C(=O)N[C@@H](CO)C(=O)N[C@@H](CO)C(=O)N[C@H](C(=O)N[C@@H](CC(N)=O)C(=O)N[C@H](C(=O)NCC(=O)N[C@@H](Cc1c[nH]cn1)C(=O)N[C@@H](CC(N)=O)C(=O)N[C@H](C(=O)N[C@@H](Cc1ccc(O)cc1)C(N)=O)[C@@H](C)O)C(C)C)[C@@H](C)O
notes: also called 97; compound 97
On to B1, for which the IC50 turned out to be 568 pM.

B2: N^ε1-[2-[2-[2-[[(4S)-4-carboxy-4-(19-carboxynonadecanoylamino)butanoyl]amino]ethoxy]ethoxy]acetyl]-[Ala14,Arg17,Pro21,Pro27,Pro31]-h-amylin (peptide)
peptide: K([AEEA-γGlu-C20 diacid])CNTATCATQRLAAFLRHSSPNFGAIPSSTPVGSNTY-NH2
modifications: disulfide 2-7; N-terminus assumed
SMILES: CC[C@H](C)[C@H](NC(=O)[C@H](C)NC(=O)CNC(=O)[C@H](Cc1ccccc1)NC(=O)[C@H](CC(N)=O)NC(=O)[C@@H]1CCCN1C(=O)[C@H](CO)NC(=O)[C@H](CO)NC(=O)[C@H](Cc1c[nH]cn1)NC(=O)[C@H](CCCNC(=N)N)NC(=O)[C@H](CC(C)C)NC(=O)[C@H](Cc1ccccc1)NC(=O)[C@H](C)NC(=O)[C@H](C)NC(=O)[C@H](CC(C)C)NC(=O)[C@H](CCCNC(=N)N)NC(=O)[C@H](CCC(N)=O)NC(=O)[C@@H](NC(=O)[C@H](C)NC(=O)[C@@H]1CSSC[C@H](NC(=O)[C@@H](N)CCCCNC(=O)COCCOCCNC(=O)CC[C@H](NC(=O)CCCCCCCCCCCCCCCCCCC(=O)O)C(=O)O)C(=O)N[C@@H](CC(N)=O)C(=O)N[C@@H]([C@@H](C)O)C(=O)N[C@@H](C)C(=O)N[C@@H]([C@@H](C)O)C(=O)N1)[C@@H](C)O)C(=O)N1CCC[C@H]1C(=O)N[C@@H](CO)C(=O)N[C@@H](CO)C(=O)N[C@H](C(=O)N1CCC[C@H]1C(=O)N[C@H](C(=O)NCC(=O)N[C@@H](CO)C(=O)N[C@@H](CC(N)=O)C(=O)N[C@H](C(=O)N[C@@H](Cc1ccc(O)cc1)C(N)=O)[C@@H](C)O)C(C)C)[C@@H](C)O
notes: also called 72; compound 72
Regarding B2, the IC50 is 172 pM.

B3: N^ε1-[2-[2-[2-[[2-[2-[2-[[(4S)-4-carboxy-4-(19-carboxynonadecanoylamino)butanoyl]amino]ethoxy]ethoxy]acetyl]amino]ethoxy]ethoxy]acetyl]-[Arg17,Pro21,Pro27,Pro34 … (peptide)
peptide: K([AEEA-AEEA-γGlu-C20 diacid])CNTATCATQRLANFLRHSSPNFGAIPSSTNVGPNTY-NH2
modifications: disulfide 2-7; N-terminus assumed
SMILES: CC[C@H](C)[C@H](NC(=O)[C@H](C)NC(=O)CNC(=O)[C@H](Cc1ccccc1)NC(=O)[C@H](CC(N)=O)NC(=O)[C@@H]1CCCN1C(=O)[C@H](CO)NC(=O)[C@H](CO)NC(=O)[C@H](Cc1c[nH]cn1)NC(=O)[C@H](CCCNC(=N)N)NC(=O)[C@H](CC(C)C)NC(=O)[C@H](Cc1ccccc1)NC(=O)[C@H](CC(N)=O)NC(=O)[C@H](C)NC(=O)[C@H](CC(C)C)NC(=O)[C@H](CCCNC(=N)N)NC(=O)[C@H](CCC(N)=O)NC(=O)[C@@H](NC(=O)[C@H](C)NC(=O)[C@@H]1CSSC[C@H](NC(=O)[C@@H](N)CCCCNC(=O)COCCOCCNC(=O)COCCOCCNC(=O)CC[C@H](NC(=O)CCCCCCCCCCCCCCCCCCC(=O)O)C(=O)O)C(=O)N[C@@H](CC(N)=O)C(=O)N[C@@H]([C@@H](C)O)C(=O)N[C@@H](C)C(=O)N[C@@H]([C@@H](C)O)C(=O)N1)[C@@H](C)O)C(=O)N1CCC[C@H]1C(=O)N[C@@H](CO)C(=O)N[C@@H](CO)C(=O)N[C@H](C(=O)N[C@@H](CC(N)=O)C(=O)N[C@H](C(=O)NCC(=O)N1CCC[C@H]1C(=O)N[C@@H](CC(N)=O)C(=O)N[C@H](C(=O)N[C@@H](Cc1ccc(O)cc1)C(N)=O)[C@@H](C)O)C(C)C)[C@@H](C)O
notes: also called 98; compound 98
As to B3, the half-maximal inhibitory concentration (IC50) was 91 pM.

B4: N^ε1-[2-[2-[2-[[2-[2-[2-[[(4S)-4-carboxy-4-(19-carboxynonadecanoylamino)butanoyl]amino]ethoxy]ethoxy]acetyl]amino]ethoxy]ethoxy]acetyl]-[Arg17,Pro21,Pro27,Pro31 … (peptide)
peptide: K([AEEA-AEEA-γGlu-C20 diacid])CNTATCATQRLANFLRHSSPNFGAIPSSTPVGSNTY-NH2
modifications: disulfide 2-7; N-terminus assumed
SMILES: CC[C@H](C)[C@H](NC(=O)[C@H](C)NC(=O)CNC(=O)[C@H](Cc1ccccc1)NC(=O)[C@H](CC(N)=O)NC(=O)[C@@H]1CCCN1C(=O)[C@H](CO)NC(=O)[C@H](CO)NC(=O)[C@H](Cc1c[nH]cn1)NC(=O)[C@H](CCCNC(=N)N)NC(=O)[C@H](CC(C)C)NC(=O)[C@H](Cc1ccccc1)NC(=O)[C@H](CC(N)=O)NC(=O)[C@H](C)NC(=O)[C@H](CC(C)C)NC(=O)[C@H](CCCNC(=N)N)NC(=O)[C@H](CCC(N)=O)NC(=O)[C@@H](NC(=O)[C@H](C)NC(=O)[C@@H]1CSSC[C@H](NC(=O)[C@@H](N)CCCCNC(=O)COCCOCCNC(=O)COCCOCCNC(=O)CC[C@H](NC(=O)CCCCCCCCCCCCCCCCCCC(=O)O)C(=O)O)C(=O)N[C@@H](CC(N)=O)C(=O)N[C@@H]([C@@H](C)O)C(=O)N[C@@H](C)C(=O)N[C@@H]([C@@H](C)O)C(=O)N1)[C@@H](C)O)C(=O)N1CCC[C@H]1C(=O)N[C@@H](CO)C(=O)N[C@@H](CO)C(=O)N[C@H](C(=O)N1CCC[C@H]1C(=O)N[C@H](C(=O)NCC(=O)N[C@@H](CO)C(=O)N[C@@H](CC(N)=O)C(=O)N[C@H](C(=O)N[C@@H](Cc1ccc(O)cc1)C(N)=O)[C@@H](C)O)C(C)C)[C@@H](C)O
notes: also called 96; compound 96
Turning to B4, the IC50 was 166 pM.

B5: N^ε1-[2-[2-[2-[[(4S)-4-carboxy-4-(19-carboxynonadecanoylamino)butanoyl]amino]ethoxy]ethoxy]acetyl]-[Arg14,Arg17,Pro21,Pro27,Pro31]-h-amylin (peptide)
peptide: K([AEEA-γGlu-C20 diacid])CNTATCATQRLARFLRHSSPNFGAIPSSTPVGSNTY-NH2
modifications: disulfide 2-7; N-terminus assumed
SMILES: CC[C@H](C)[C@H](NC(=O)[C@H](C)NC(=O)CNC(=O)[C@H](Cc1ccccc1)NC(=O)[C@H](CC(N)=O)NC(=O)[C@@H]1CCCN1C(=O)[C@H](CO)NC(=O)[C@H](CO)NC(=O)[C@H](Cc1c[nH]cn1)NC(=O)[C@H](CCCNC(=N)N)NC(=O)[C@H](CC(C)C)NC(=O)[C@H](Cc1ccccc1)NC(=O)[C@H](CCCNC(=N)N)NC(=O)[C@H](C)NC(=O)[C@H](CC(C)C)NC(=O)[C@H](CCCNC(=N)N)NC(=O)[C@H](CCC(N)=O)NC(=O)[C@@H](NC(=O)[C@H](C)NC(=O)[C@@H]1CSSC[C@H](NC(=O)[C@@H](N)CCCCNC(=O)COCCOCCNC(=O)CC[C@H](NC(=O)CCCCCCCCCCCCCCCCCCC(=O)O)C(=O)O)C(=O)N[C@@H](CC(N)=O)C(=O)N[C@@H]([C@@H](C)O)C(=O)N[C@@H](C)C(=O)N[C@@H]([C@@H](C)O)C(=O)N1)[C@@H](C)O)C(=O)N1CCC[C@H]1C(=O)N[C@@H](CO)C(=O)N[C@@H](CO)C(=O)N[C@H](C(=O)N1CCC[C@H]1C(=O)N[C@H](C(=O)NCC(=O)N[C@@H](CO)C(=O)N[C@@H](CC(N)=O)C(=O)N[C@H](C(=O)N[C@@H](Cc1ccc(O)cc1)C(N)=O)[C@@H](C)O)C(C)C)[C@@H](C)O
notes: also called 64; compound 64
In the case of B5, the IC50 was 444 pM.

B6: N^ε1-[2-[2-[2-[[(4S)-4-carboxy-4-(19-carboxynonadecanoylamino)butanoyl]amino]ethoxy]ethoxy]acetyl]-[Arg14,Arg17,Pro21,Pro27]-h-amylin (peptide)
peptide: K([AEEA-γGlu-C20 diacid])CNTATCATQRLARFLRHSSPNFGAIPSSTNVGSNTY-NH2
modifications: disulfide 2-7; N-terminus assumed
SMILES: CC[C@H](C)[C@H](NC(=O)[C@H](C)NC(=O)CNC(=O)[C@H](Cc1ccccc1)NC(=O)[C@H](CC(N)=O)NC(=O)[C@@H]1CCCN1C(=O)[C@H](CO)NC(=O)[C@H](CO)NC(=O)[C@H](Cc1c[nH]cn1)NC(=O)[C@H](CCCNC(=N)N)NC(=O)[C@H](CC(C)C)NC(=O)[C@H](Cc1ccccc1)NC(=O)[C@H](CCCNC(=N)N)NC(=O)[C@H](C)NC(=O)[C@H](CC(C)C)NC(=O)[C@H](CCCNC(=N)N)NC(=O)[C@H](CCC(N)=O)NC(=O)[C@@H](NC(=O)[C@H](C)NC(=O)[C@@H]1CSSC[C@H](NC(=O)[C@@H](N)CCCCNC(=O)COCCOCCNC(=O)CC[C@H](NC(=O)CCCCCCCCCCCCCCCCCCC(=O)O)C(=O)O)C(=O)N[C@@H](CC(N)=O)C(=O)N[C@@H]([C@@H](C)O)C(=O)N[C@@H](C)C(=O)N[C@@H]([C@@H](C)O)C(=O)N1)[C@@H](C)O)C(=O)N1CCC[C@H]1C(=O)N[C@@H](CO)C(=O)N[C@@H](CO)C(=O)N[C@H](C(=O)N[C@@H](CC(N)=O)C(=O)N[C@H](C(=O)NCC(=O)N[C@@H](CO)C(=O)N[C@@H](CC(N)=O)C(=O)N[C@H](C(=O)N[C@@H](Cc1ccc(O)cc1)C(N)=O)[C@@H](C)O)C(C)C)[C@@H](C)O
notes: also called 82; compound 82
As for B6, the IC50 was 636 pM.

By IC50 is commonly meant the midpoint of a concentration-inhibition curve.
